Measurements reported in paper PMC8828050, “Covalent inhibition of endoplasmic reticulum chaperone GRP78 disconnects the transduction of ER stress signals to inflammation and lipid accumulation in diet-induced obese mice” (eLife, 2022).

Legend:
[1] = target: T1, Recombinant 6xHis-tagged human GRP78 protein, biotinylated, saturated with 10 μM celastrol (human, UniProt P11021 19-654, biotin (EZ-Link Sulfo-NHS-Biotin); celastrol covalently bound to Cys41 (mapped on recombinant mouse GRP78)); assay: SPR; as a1, but the GRP78 chip was saturated with 10 μM celastrol before the peptide; peptide 1.56 to 100 μM; steady-state analysis, 1:1 model; n = 4; conditions: both partners purified
T1 construct: 78 kDa glucose-regulated protein (GRP78), human, recombinant from Abcam; Same protein as m2, after saturation with celastrol; The covalent site Cys41 was mapped by LC-MS/MS on mouse GRP78 made in E. coli, not on the human protein on the chip; also called celastrol–GRP78 conjugate; GRP78-coated Sensor Chip saturated by celastrol; source: bought: Abcam; saturated on the chip with 10 μM celastrol

[2] = target: T2, Recombinant 6xHis-tagged human GRP78 protein, biotinylated (human, UniProt P11021 19-654, biotin (EZ-Link Sulfo-NHS-Biotin)); assay: SPR; biotinylated GRP78 captured on streptavidin Sensor Chip SA; peptide 2.5 nM to 320 μM flowed at 30 μl/min, 25°C; 10 mM HEPES, 150 mM NaCl, 3 mM EDTA, 0.005% Tween-20, pH 7.4; steady-state analysis, 1:1 model; Biacore X100; average of four runs; conditions: both partners purified
T2 construct: 78 kDa glucose-regulated protein (GRP78), human, recombinant from Abcam; Captured on the streptavidin chip through the biotin; No Abcam catalogue number is printed; also called 78 kDa glucose-regulated protein; biotinylated GRP78; source: bought: Abcam
T2 sequence (P11021 19-654): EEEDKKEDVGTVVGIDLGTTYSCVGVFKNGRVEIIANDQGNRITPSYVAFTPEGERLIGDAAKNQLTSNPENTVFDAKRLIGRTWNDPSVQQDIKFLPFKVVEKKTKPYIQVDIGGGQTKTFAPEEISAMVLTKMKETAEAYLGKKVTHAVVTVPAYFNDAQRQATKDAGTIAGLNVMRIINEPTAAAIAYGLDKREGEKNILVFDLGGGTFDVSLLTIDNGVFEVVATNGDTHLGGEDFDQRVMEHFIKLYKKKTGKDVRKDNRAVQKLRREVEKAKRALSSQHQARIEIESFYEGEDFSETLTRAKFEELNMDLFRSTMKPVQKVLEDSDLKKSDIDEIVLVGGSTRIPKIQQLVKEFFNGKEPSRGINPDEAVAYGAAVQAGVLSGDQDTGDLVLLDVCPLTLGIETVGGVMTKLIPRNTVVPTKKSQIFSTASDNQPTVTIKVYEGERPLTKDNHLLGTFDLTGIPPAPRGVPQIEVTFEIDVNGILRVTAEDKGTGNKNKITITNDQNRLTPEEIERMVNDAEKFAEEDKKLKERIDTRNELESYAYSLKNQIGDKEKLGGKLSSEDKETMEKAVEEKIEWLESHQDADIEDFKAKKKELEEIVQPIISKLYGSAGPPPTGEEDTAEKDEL

T1 sequence (P11021 19-654): as above

Kd [1]: 2.23 µM
Kd [2]: 0.0177 µM
B1: synthetic GRP78-targeting peptide WDLAWMFRLPVG (peptide)
peptide: WDLAWMFRLPVG
notes: synthetic GRP78-targeting peptide, as described in Arap et al., 2004; That it is not a natural stretch is surmised; also called synthetic peptide; source: synthetic peptide (GL Biochem Ltd, Shanghai)
